These results are taken from patent US6428967 (University of Texas, dated 2002).

The target in one assay is T1, JIP-1 (mouse, UniProt Q9WVI9 1-707).
T1 construct: Yeast two-hybrid prey clone; also called meg11
T1 sequence: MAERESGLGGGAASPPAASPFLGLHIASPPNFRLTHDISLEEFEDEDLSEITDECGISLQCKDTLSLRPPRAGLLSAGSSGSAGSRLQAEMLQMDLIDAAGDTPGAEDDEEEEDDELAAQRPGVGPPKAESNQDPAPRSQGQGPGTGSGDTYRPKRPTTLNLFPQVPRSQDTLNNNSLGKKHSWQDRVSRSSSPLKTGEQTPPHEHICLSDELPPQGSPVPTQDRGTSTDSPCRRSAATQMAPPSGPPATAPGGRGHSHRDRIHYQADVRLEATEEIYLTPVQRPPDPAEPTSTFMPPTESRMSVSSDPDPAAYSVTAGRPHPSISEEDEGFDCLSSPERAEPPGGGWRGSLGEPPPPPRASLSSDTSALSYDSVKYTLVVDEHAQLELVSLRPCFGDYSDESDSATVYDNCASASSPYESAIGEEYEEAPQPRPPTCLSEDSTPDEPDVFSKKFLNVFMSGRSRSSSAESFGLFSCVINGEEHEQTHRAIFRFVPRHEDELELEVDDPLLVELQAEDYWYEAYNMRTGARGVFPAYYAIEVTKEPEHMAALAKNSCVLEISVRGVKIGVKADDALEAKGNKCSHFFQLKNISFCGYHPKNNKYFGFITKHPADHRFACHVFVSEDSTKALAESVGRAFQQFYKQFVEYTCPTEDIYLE
In words: yeast two-hybrid, LexA tail bait against prey. How it is done:
(§1) PCR products were subcloned into the EcoRI and NcoI sites of pLexA for the Megalin and VLDL Receptor, and into EcoRI and BarnHI sites for the other receptors. […] All constructs were sequenced after cloning, and all bait vectors were tested for self-activation. Bait and prey vectors were cotransfected into yeast cells (leucine auxotrophic strain EGY48) using the LiAc method as described in the […] manual (CLONTECH). The two-hybrid assay used two reporters (LEU2 and lacZ) under the control of LexA operators. Cells were spread on selective plates (His-;Leu-;Trp-) and grown for 3 days. Single clones were grown on selective plates in patches and harvested after 2–3 days. To recover DNA from yeast, cells were resuspended in 50 μl STES (0.5M NaCl, 0.2M Tris-HCl pH 7.6, 0.01M EDTA, 1% SDS). Glass beads were added and the cells vortexed vigorously. After addition of 20 μl H2O and 60 μl phenol/chloroform cells were vortexed for 1 more minute and centrifuged (14,000×g, 5 min). The aqueous phase was collected and the DNA was precipitated with EtOH. DNA from positive clones was retransformed into DH5α and checked by DNA sequencing. Yeast mating was performed after transformation of LexA plasmids into the yeast strain YM4271 following the instructions in the […] manual (CLONTECH).
(§2) The ApoER2 tail was tested with (+) and without (−) its alternatively spliced insert. For Megalin and for LRP the complete tails and parts thereof containing a single NPxY motif were tested separately.

The target in another assay is T2, PSD-95 (mouse, UniProt Q62108 1-724).
T2 construct: Yeast two-hybrid prey clone; also called postsynaptic density-95; postsynaptic density protein PSD-95
T2 sequence (Q62108 whole entry): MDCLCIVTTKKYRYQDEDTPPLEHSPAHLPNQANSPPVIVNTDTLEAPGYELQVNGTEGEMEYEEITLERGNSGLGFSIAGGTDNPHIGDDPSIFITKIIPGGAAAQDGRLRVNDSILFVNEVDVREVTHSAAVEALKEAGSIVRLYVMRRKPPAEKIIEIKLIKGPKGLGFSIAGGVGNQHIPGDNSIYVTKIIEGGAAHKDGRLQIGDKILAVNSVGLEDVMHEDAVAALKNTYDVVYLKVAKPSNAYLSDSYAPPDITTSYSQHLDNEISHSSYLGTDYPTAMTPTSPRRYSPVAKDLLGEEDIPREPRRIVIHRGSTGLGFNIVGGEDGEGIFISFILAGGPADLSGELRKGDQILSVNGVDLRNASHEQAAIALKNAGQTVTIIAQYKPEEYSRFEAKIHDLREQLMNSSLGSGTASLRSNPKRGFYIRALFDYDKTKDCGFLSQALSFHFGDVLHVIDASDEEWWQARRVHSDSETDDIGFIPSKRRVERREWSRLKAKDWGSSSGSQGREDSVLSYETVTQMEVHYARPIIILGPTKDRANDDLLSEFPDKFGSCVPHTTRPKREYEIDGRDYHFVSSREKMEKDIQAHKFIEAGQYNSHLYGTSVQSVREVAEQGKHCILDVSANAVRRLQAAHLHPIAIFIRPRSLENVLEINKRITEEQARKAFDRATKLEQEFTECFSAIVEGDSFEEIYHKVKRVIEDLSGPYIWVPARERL
Put plainly: yeast two-hybrid, LexA tail bait against prey. How it is done:
as §1, §2

In assay [1] the target is T3, Disabled-1 (Dab1), two-hybrid prey in pB42AD (UniProt P97318-2 1-555).
T3 sequence (looked up): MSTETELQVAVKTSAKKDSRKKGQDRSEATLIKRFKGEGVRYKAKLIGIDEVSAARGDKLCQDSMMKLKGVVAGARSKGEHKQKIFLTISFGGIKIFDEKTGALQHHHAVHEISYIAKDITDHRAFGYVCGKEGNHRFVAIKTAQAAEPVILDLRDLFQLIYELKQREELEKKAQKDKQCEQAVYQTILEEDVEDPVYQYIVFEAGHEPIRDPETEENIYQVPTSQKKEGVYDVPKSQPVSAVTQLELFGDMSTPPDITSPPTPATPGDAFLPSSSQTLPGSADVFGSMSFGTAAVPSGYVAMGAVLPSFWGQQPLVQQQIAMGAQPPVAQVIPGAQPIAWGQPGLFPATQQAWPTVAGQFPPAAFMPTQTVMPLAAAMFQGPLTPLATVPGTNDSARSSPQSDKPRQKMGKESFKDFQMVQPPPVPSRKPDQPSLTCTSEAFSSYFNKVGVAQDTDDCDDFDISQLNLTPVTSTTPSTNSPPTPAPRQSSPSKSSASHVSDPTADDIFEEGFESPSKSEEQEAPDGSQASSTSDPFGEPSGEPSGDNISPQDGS
In words: yeast two-hybrid, LexA tail bait against B42AD-Dab1. How it is done:
as §1, with “All LDL receptor family cytoplasmic tail LexA fusion proteins were constructed using the pLexA vector ([…] system, CLONTECH). […] PCR” for “PCR”
as §2

B1: ApoER2 cytoplasmic tail without its alternatively spliced insert, LexA fusion protein (ApoER2- mouse) (receptor, not shown: large carriers)
chain: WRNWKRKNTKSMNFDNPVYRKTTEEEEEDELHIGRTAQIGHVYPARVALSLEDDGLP
notes: LexA fusion bait of the two-hybrid assay; also called the tail without this insert
As to B1, the binding result in the assay with JIP-1 and in the assay with PSD-95 was “no binding” throughout.

B2: ApoER2 cytoplasmic tail with its alternatively spliced insert, LexA fusion protein (ApoER2+ mouse) (receptor, not shown: large carriers)
chain: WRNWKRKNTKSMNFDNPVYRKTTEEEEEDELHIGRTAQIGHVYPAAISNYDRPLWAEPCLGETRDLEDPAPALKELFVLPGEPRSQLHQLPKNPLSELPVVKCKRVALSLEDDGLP
notes: LexA fusion bait of the two-hybrid assay; also called the ApoER2 tail containing the alternatively spliced insert
Turning to B2, in the assay with PSD-95, the binding result is “binds”.

B3: MegC, part of the Megalin cytoplasmic tail, LexA fusion protein (MegC human) (receptor, not shown: large carriers)
chain: GSPINPSEIVPETNPTSPAADGTQVTKWNLFKRKSKQTTNFENPIYAQMENEQKESVAATPPPSPSLPAKPKPPSRRDPTPTYSATEDTFKDTANLVKEDSEV
notes: LexA fusion bait of the two-hybrid assay
Turning to B3, in assay [1], the binding result is listed as “no binding”.

B4: MegB, part of the Megalin cytoplasmic tail, LexA fusion protein (MegB human) (receptor, not shown: small tags and cut ends)
chain: SARDSAVKVVQPIQVTVSENVDNKNYGSPINPSEIVPETNPTSPAADGTQVTKWNLFKRKSKQTTNFE
notes: WARNING: the listing's entry 129 (76 residues) begins like the LRP entries 130 and 132, while entry 131 (68 residues) is a stretch of the Megalin entry 127; entries 129 and 131 look exchanged, so MegB is probably entry 131
On to B4, for which the binding result in assay [1] is reported as “no binding”.

B5: LRPA, part of the LRP cytoplasmic tail, LexA fusion protein (LRPA human) (receptor, not shown: large carriers)
chain: VQGAKGFQHQRMTNGAMNVEIGNPTYKMYEGGEPDDVG
notes: as for B3
As to B5, the binding result in assay [1] is on record as “no binding”.
